Reference: US20080242617

T1: HalA1
T1 chain: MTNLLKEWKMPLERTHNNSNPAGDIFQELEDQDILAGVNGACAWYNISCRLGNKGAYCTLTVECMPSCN

T2: HalA2
T2 chain: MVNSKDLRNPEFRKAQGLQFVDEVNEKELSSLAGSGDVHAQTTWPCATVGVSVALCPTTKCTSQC


Tests used:
HalA1 = target: T1, HalA1
HalA2 = target: T2, HalA2

| Protein | dehydration of the peptide, MALDI-TOF MS (HalA1) | dehydration of the peptide, MALDI-TOF MS (HalA2) | iodoacetamide alkylation of free cysteines after HalM modification (cyclization), MALDI-TOF MS (HalA2) | iodoacetamide alkylation of free cysteines after HalM modification (cyclization), MALDI-TOF MS (HalA1) |
| --- | --- | --- | --- | --- |
| HalM2 (protein) TPLTSEHPSVPTTLPHTNDTDWLEQLHDILSIPVTEEIQKYFHAENDLFSFFYTPFLQFTYQSMSDYFMTFKTDMALIERQSLLQSTLTAVHHRLFHLTHRTLISEMHIDKLTVGLNGSTPHERYMDFNHKFNKTSKSKNLFNIYPILGKLVVNETLRTINFVKKIIQHYMKDYLLLSDFFKEKDLRLTNLQLGVGDTHVNGQCVTILTFASGQKVVYKPRSLSIDKQFGEFIEWVNSKGFQPSLRIPIAIDRQTYGWYEFIPHQEATSEDEIERYYSRIGGYLAIAYLFGATDLHLDNLIACGEHPMLIDLETLFTNDLDCYDSAFPFPALARELTQSVFGTLMLPITIASGKLLDIDLSAVGGGKGVQSEKIKTWVIVNQKTDEMKLVEQPYVTESSQNKPTVNGKEANIGNYIPHVTDGFRKMYRLFLNEIDELMDHNGPIFAFESCQIRHVFRATHVYAKFLEASTHPDYLQEPTRRNKLFESFWNITSLMAPFKKIVPHEIAELENHDIPYFVLTCGGTIVKDGYGRDIADLFQSSCIERVTHRLQQLGSEDEARQIRYIKSSLATLTNGDWTPSHEKTPMSPASADREDGYFLREAQAIGDDILAQLIWEDDRHAAYLIGVSVGMNEAVTVSPLTPGIYDGTLGIVLFFDQLAQQTGETHYRHAADALLEGMFKQLKPELMPSSAYFGLGSLFYGLMVLGLQRSDSHIIQKAYEYLKHLEECVQHEETPDFVSGLSGVLYMLTKIYQLTNEPRVFEVAKTTASRLSVLLDSKQPDTVLTGLSHGAAGFALALLTYGTAANDEQLLKQGHSYLVYERNRFNKQENNWVDLRKGNAYQTFWCHGAPGIGISRLLLAQFYDDELLHEELNAALNKTISDGFGHNHSLCHGDFGNLDLLLLYAQYTNNPEPKELARKLAISSIDQAHTYGWKLGLNHSDQLQGMMLGVTGIGYQLLRHINPTVPSILALELPSSTLTEKELRIHDR | Incubation of HalA1 with HalM2 or HalA2 with HalM1 did not result in modified peptide in either case | incubation of HalA2 with HalM2 generated a species that was dehydrated 7-fold | The mass of HalA2 modified by HalM2 remained unchanged under the alkylation conditions tested, consistent with the absence of free Cys residues | – |
| HalM1 (protein) MRELQNALYFSEVVFGPNLEKIVGEKRLNFWLKLIGEDPENLKEFLSRKGNSFEEQTLPEKEAIVPNRLGEEALEKVREELEFLNTYSTKHVRRVKELGVQIPFEGILLPFISMYIEKFQQQQLRKKIGPIHEEIWTQIVQDITSKLNAILHRTLILELNVARVTSQLKGDTPEERFAYYSKTYLGKREVTHRLYSEYPVVLRLLFTTISHHISFITEILERVANDREAIETEFSPCSPIGTLASLHLNSGDAHHKQRTVTILEFSSSLKLVYKPRSLKVDGVFNGLLAFLNDRTGEVIKDQYCPKVLQRDGYGYVEFVTHQSCQSLEEVSDFYERLGSLMSLSYVLNSSDFHFENIIAHGPYPVLIDLETIIHNTADSSEETSTAMDRAFRMLNDSVLSTGMLPSSIYYRDQPNMKGLNVGGVSKSEGQKTPFKVNQIANRNTDEMRIEKDHVTLSSQKNLPIFQSAAMESVHFLDQIQKGFTSMYQWIEKNKQEFKEQVRKFEGVPVRAVLRSTTRYTELLKSSYHPDLLRSALDREVLLNRLTVDSVMTPYLKEIIPLEVEDLLNGDVPYFYTLPEERALYQEASAINSTFFTTSIFHKIDQKIDKLGIEDHTQQMKILHMSMLASNANHYADVADLDIQKGHTIKNEQYVEMAKDIGDYLMELSVEGENQGEPDLCWISTVLEGSSEIIWDISPVGEDLYNGSAGVALFYAYLFKITGEKRYQEIAYKALVPVRRSVAQFQHHPNWSIGAFNGASGYLYAMGTIAALFNDERLKHEVTRSIPHIEPMIHEDKIYDFIGGSAGALKVFLSLSGLFDEPKFLELAIACSEHLMKNAIKTDQGIGWKPPWEVTPLTGFSHGVSGVMASFIELYQQTGDERLLSYIDQSLAYERSFFSEQEENWLTPNKETPVVAWCHGAPGILVSRLLLKKCGYLDEKVEKEIEVALSTTIRKGLGNNRSLCHGDFGQLEILRFAAEVLGDSYLQEVVNNLSGELYNLFKTEGYQSGTSRGTESVGLMVGLSGFGYGLLSAAYPSAVPSILTLDGEIQKYREPHEANH | Incubation of HalA1 with HalM1 generated a species that was dehydrated 3-fold | Incubation of HalA1 with HalM2 or HalA2 with HalM1 did not result in modified peptide in either case | – | The mass of HalA1 after modification by HalM1 was increased by 116 Da, consistent with the addition of two adducts |
